Results on 67 sequences are retold here after the supplement of paper PMC10126150.

± gives the standard deviation of the averaged measurements.

This data set has as its system ATP. Kind of data set: switch fluorescence ratio, 500 uM ATP over buffer (Cy3 cluster intensity, sum of 5 cycles each) (fold (ratio)); higher = stronger signal-on switching upon ATP binding; sequences stand for … in TCGTCGGCAGCGTCAGATGTGTATAAGAGACAGTTTTTTTTTTTTTTTTTTTTTTTTT…TC. The note with it: aptamer strand: ATP DNA aptamer (quencher-CACCTGGGGGAGTATTGCGGAGGAAGG + anchor), 100 nM annealed; ATP concentration: 500 uM. The gist of the method:
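After annealing to 100 nM quencher-labelled ATP aptamer, Cy3-labelled switching-strand clusters on a modified Illumina MiSeq flow-cell were imaged in selection buffer. A second image followed after 15 min with 500 uM ATP at 22 °C, and five such buffer/ATP cycles were done, each separated by NaOH stripping and re-annealing. The fluorescence ratio, averaged per switch-domain sequence, is summed target-cycle over summed buffer-cycle Cy3 intensity per cluster, with clusters outside 100-1000 RFU excluded.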
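Note: ATP exposure 15 min at 22 °C before imaging.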

Regarding ATGGAAGGCG, the switch fluorescence ratio was determined as 1.01 ± 0.036.
Then GGAAGCGAAC, with 1.47 ± 0.067; and AAATGCGGGG, with 0.978 ± 0.036; and TGGGCAGAAG, with 0.9744 ± 0.0053.
With TTCGGGTGTT, the switch fluorescence ratio is 0.9932 ± 0.0029.
For the sequence ACAGGACAGG, the switch fluorescence ratio stood at 1.14 ± 0.014.
Turning to GGCTTAGCAT, the switch fluorescence ratio was found to be 1.02 ± 0.037.
Regarding AAATTCATTG, the switch fluorescence ratio stood at 0.969 ± 0.04.
To AGTCAATGAC belongs 0.968 ± 0.012; to GACAAAGGGC, 1.08 ± 0.027.
Consider ATGGGGATTG, for which the switch fluorescence ratio is 0.983 ± 0.048.
Then AGTATTTTGC, with 0.969 ± 0.085; and AGTGGTCG, with 1.04 ± 0.033; and TATAACGGGA, with 1.05 ± 0.027.
On to AAGTCAAGTA, for which the switch fluorescence ratio was found to be 0.9581 ± 0.0054.
As for GAGGGTGGAA, the switch fluorescence ratio stood at 1.04 ± 0.12.
To GTTTAACCCG belongs 1.002 ± 0.0033; to CGGTAAACAC, 1.06 ± 0.047; to TGATTGCAGC, 0.994 ± 0.028.
Consider ATGCAGCAT, for which the switch fluorescence ratio stood at 1.06 ± 0.036.
Consider GGTGTCAGCT, for which the switch fluorescence ratio was found to be 0.967 ± 0.038.
In the case of ATGTTCAAGA, the switch fluorescence ratio was 1.01 ± 0.015.
With TGATCGTCTG, the switch fluorescence ratio stood at 1.031 ± 0.0017.
Take GTTTGGGTGA: the switch fluorescence ratio came to 1 ± 0.026.
Regarding CAGAAAAAAG, the switch fluorescence ratio stood at 1.01 ± 0.028.
As to AAAAATGGGC, the switch fluorescence ratio was found to be 1.035 ± 0.005.
TACCGGTTCG: the switch fluorescence ratio was found to be 1 ± 0.011.
For the sequence ACTGCAGAGG, the switch fluorescence ratio came out at 1.08 ± 0.034.
Turning to AGTACGAGCC, the switch fluorescence ratio worked out at 1.186 ± 0.0026.
Consider AGGATTGTTG, for which the switch fluorescence ratio was determined as 0.994 ± 0.07.
Regarding TATCATTCGG, the switch fluorescence ratio was 1.01 ± 0.043.
In the case of CTGGGGTGGG, the switch fluorescence ratio turned out to be 1.01 ± 0.042.
Turning to CCCCGAGGAT, the switch fluorescence ratio worked out at 1.14 ± 0.022.
Regarding ATTACCAGGT, the switch fluorescence ratio worked out at 1.27 ± 0.048.
For the sequence CTGAGTGCTT, the switch fluorescence ratio turned out to be 0.991 ± 0.0067.
In the case of TGCTTACCCA, the switch fluorescence ratio was found to be 1.03 ± 0.017.
Then ATAGGGGTGT, with 1.01 ± 0.062; and TATACGGGGG, with 0.992 ± 0.049.
As for TTGAAGCAGC, the switch fluorescence ratio came to 1.45 ± 0.2.
With ACATAAGGTT, the switch fluorescence ratio amounted to 1.03 ± 0.052.
To CTATCGGGAG belongs 0.9831 ± 0.0025; to AAGTGTGGTA, 0.991 ± 0.018.
To AATGATGCCG belongs 0.9864 ± 0.008.
To TTGAAGGGTC belongs 0.981 ± 0.057; to GCGACGAGTA, 1.074 ± 0.004.
Consider GGAAGTTGTA, for which the switch fluorescence ratio came to 1.07 ± 0.13.
As for GGGGACGGTG, the switch fluorescence ratio was 1.03 ± 0.048.
As for GGGTGCATTG, the switch fluorescence ratio was 1.03 ± 0.021.
TGGGGCTACC: the switch fluorescence ratio turned out to be 1.06 ± 0.093.
Consider GGCAGTACGT, for which the switch fluorescence ratio was 1.27 ± 0.066.
For the sequence ATTTGTCCGG, the switch fluorescence ratio was determined as 1.007 ± 0.0081.
Then CCAGGGCGCG, with 1.004 ± 0.002; and TAGGATTCGA, with 0.964 ± 0.016.
For CACCTTTACA, the switch fluorescence ratio was 1.16 ± 0.034.
Then CATCCGGGGT, with 2.04 ± 0.57; and AGAATTTGCG, with 0.974 ± 0.018; and ATCGGGTCGA, with 1 ± 0.023.
As for AATTAGAAGC, the switch fluorescence ratio came to 0.9962 ± 0.0075.
Take TGGTCGGTAG: the switch fluorescence ratio was 0.9855 ± 0.0023.
In the case of AGGGAATTAC, the switch fluorescence ratio worked out at 1.022 ± 0.0036.
In the case of ATGGAGGGTG, the switch fluorescence ratio is 1.04 ± 0.031.
To CTTGGGCGGA belongs 1.027 ± 0.008; to ACATCGGAAC, 1.04 ± 0.015.
On to TTCGGTGTTG, for which the switch fluorescence ratio was 0.969 ± 0.045.
Regarding TTTACGGGGA, the switch fluorescence ratio turned out to be 1 ± 0.022.
On to GGTCGTTTTT, for which the switch fluorescence ratio is 1.044 ± 0.0029.
Consider AGATTTTTGA, for which the switch fluorescence ratio came to 0.942 ± 0.069.
